Results taken from the RNAGym collection of RNA variant scans (doi:10.1073/pnas.2313332121).

B1: TPR t1 (parent)
chain: GACCAAUCUGCCCUCAGAGCUCGAGAACAUCUUCGGAUGCAGAGGAGGCAGGCUUCGGUGGCGCGAUAGCGCCAACGUCCUCAACCUCCAAUGCAUCCCACCACAUGAUGAUGCCUGAAGAGCCUUGGUUUUUUG

Variants of: B1
Test: polymerase ribozyme fitness, log enrichment relative to wild type (log ratio); higher = more active; in vitro selection for triplet polymerase activity
Method in brief: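 Frozen incubation at −7 °C formed the core of a single, triplicate in vitro selection round applied to PCR-built, transcribed mutant libraries of each subunit of a heterodimeric triplet polymerase ribozyme. Extended constructs were gel-excised, captured with streptavidin beads and amplified by RT-PCR, and input and output libraries were Illumina-sequenced with a filter of ≥10 input reads and ≥1 read per output. Fitness is the logarithm of genotype enrichment relative to wild-type enrichment, with inverse-variance-weighted replicate averaging, and the logarithm is base 2.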

Variant | polymerase ribozyme fitness (log ratio)
G69U C99A U130G | -3.92
G60U C80U U106G U129G | -6.15
G71A C85U G120C | 0.00346
A16C U112G | -2.88
C11A A24C G122A C123G | -5.76
C94G G120A | 0.357
G42A A66G C70U C89A U132A | -5.56
C86A G110A | -1.86
U14C A90C | -3.39
C72A G77A | -0.135
G44U U131A | -1.33
C8U U55G G77U G113C | -1.83
U38G C64U | -1.09
C12G C56U A74G G77C | -1.66
G77A C86U U112A | 1.14
A18U G77U | -2.27
A27C A118U | -2.67
C15G C70G U132C | -6.73
A50C C89A | -2.41
G19U G63A G77U U109A C114U G117C | -6.78
A74G A95U | -0.0785

Variant | polymerase ribozyme fitness (log ratio)
G44A G61U C99U | -4.04
A41G G69U A74U U81A | -1.11
G120A G128U | -0.62
A29U C34U A46U U87G | -5.9
U112G C123U | 0.561
G39U C79G U96C | -4.66
G69A G127A | -4.05
G17U A43U | -3.34
C13U G48A G122U | 0.102
G42U G63C | -2.22
A5G G61A U78A A84C U129A | -1.36
A43U C49G G135U | -3.89
C12G C64A G122A | -6.12
C115U A118C | -2.16
U9C A27C | -2.15
A29C U55C C115A U133A | -2.81
A43U A66C G71U | -5.02
G63U U132A | -0.852
G60A C80A G113C | -6.39
U9A C13U G25A A29G C53A C114G | -6.86
A24C A91U G117U C123G | -7.92

Variant | polymerase ribozyme fitness (log ratio)
G23U G35A A46U G47U G71A G117C U130A | -6.34
U9A U106A | 0.641
C3U G10A | 0.634
G63U G117C | -4.05
A37U U59A | -0.609
C8G U14G G36U C80U G120A | 1.03
C62A G110A U126G | -3.4
U33G C79G | -6.57
G10A A37U G117U U133A | -4.32
A41G G52A U59C U125G | -1.61
A27C A46C C56G | -4.61
U38A U59G A83C | -1.75
C11G G77U | 0.134
U9G C98U | -0.308
G17A C62A | -4.08
A41U G45A U55C | -1.85
G69U U116G | -2.69
C40G C72G C115G C123G G128C | -4.8
C22G C49G A84U C86U | -4.89
C56G C72A C79U G117U | -4.93
G44U U87C U106C | -1.29

Variant | polymerase ribozyme fitness (log ratio)
G10U G60U U112A C114U | -1.17
C8A C64A | -5.69
G52U A103U | -6.74
C56G G120A | 0.238
C123A U125C U129G | -1.5
C88A C98A C124G | -3.46
G19C A66C C114U U116C | -3.53
G39C C115A | -1.12
G10A G35U C56G C88A G120C U133A | -4.15
G10C A18U C88A C97U U106C | -5.16
G47U G63A A111G G120A | -3.58
C13A A26C C56A G60U C88U G113U C115U | -6.95
A18C G61C U112G | -6.42
C64U G93A U96A U126G | -5.25
G45U G61C A66U | -3.49
A100C A121C | 0.337
C4A A5G A111C | -0.259
C34U C56U C115A | -4.02
C62G C86U | -1.34
G45A A50G C62U | -0.502
G36A G71U C76U U125A | -4.4
